Measured values from the Immune Epitope Database (IEDB).

Legend:
[1] = target: HLA-B*46:01; test: IEDB peptide-MHC binding, purified MHC/competitive/fluorescence; filed as Kd, often an IC50 or EC50 that approximates it; ≥ and ≤ were set here for values at or beyond the usual limits of such assays
[2] = target: HLA-B*51:01; test: IEDB peptide-MHC binding, purified MHC/direct/fluorescence; filed as Kd, often an IC50 or EC50 that approximates it; ≥ and ≤ were set here for values at or beyond the usual limits of such assays; details: source organism: Escherichia coli O157:H7
[3] = target: HLA-B*15:01; test: as above; details: source organism: Escherichia coli O157:H7 str. EC869
[4] = target: HLA-A*23:01; test: as above; details: source organism: Escherichia coli O157:H7 str. EC869
[5] = target: HLA-B*57:01; test: as above; details: source organism: Escherichia coli O157:H7 str. EC869
[6] = target: HLA-A*29:02; test: as above; details: source organism: Escherichia coli O157:H7 str. EC869
[7] = target: HLA-B*18:01; test: as above; details: source organism: Escherichia coli O157:H7 str. EC869
[8] = target: HLA-B*58:01; test: as above; details: source organism: Escherichia coli O157:H7 str. EC869
[9] = target: HLA-B*44:02; test: as above; details: source organism: Escherichia coli O157:H7 str. EC869
[10] = target: HLA-B*07:02; test: as above; details: source organism: Escherichia coli O157:H7
[11] = target: HLA-B*40:01; test: as above; details: source organism: Escherichia coli O157:H7 str. EC869
[12] = target: HLA-A*02:10; test: as above; details: source organism: Escherichia coli O157:H7 str. EC869
[13] = target: HLA-A*24:03; test: as above; details: source organism: Escherichia coli O157:H7 str. EC869
[14] = target: HLA-A*30:01; test: as above; details: source organism: Escherichia coli O157:H7 str. EC869
[15] = target: HLA-A*02:11; test: as above; details: source organism: Escherichia coli O157:H7 str. EC869
[16] = target: HLA-A*02:50; test: as above; details: source organism: Escherichia coli O157:H7 str. EC869
[17] = target: HLA-A*02:16; test: IEDB peptide-MHC binding, purified MHC/competitive/fluorescence; filed as Kd, often an IC50 or EC50 that approximates it; ≥ and ≤ were set here for values at or beyond the usual limits of such assays; details: source organism: Plesiomonas shigelloides
[18] = target: HLA-B*51:01; test: as above; details: source organism: Plesiomonas shigelloides
[19] = target: HLA-A*68:02; test: as above; details: source organism: Plesiomonas shigelloides
[20] = target: HLA-A*23:01; test: as above; details: source organism: Plesiomonas shigelloides
[21] = target: HLA-B*57:01; test: as above; details: source organism: Plesiomonas shigelloides
[22] = target: HLA-A*80:01; test: as above; details: source organism: Plesiomonas shigelloides
[23] = target: HLA-A*02:12; test: as above; details: source organism: Plesiomonas shigelloides
[24] = target: HLA-A*02:03; test: as above; details: source organism: Plesiomonas shigelloides
[25] = target: HLA-A*29:02; test: as above; details: source organism: Plesiomonas shigelloides
[26] = target: HLA-B*39:01; test: as above; details: source organism: Plesiomonas shigelloides
[27] = target: HLA-B*27:03; test: as above; details: source organism: Plesiomonas shigelloides
[28] = target: HLA-A*26:01; test: as above; details: source organism: Plesiomonas shigelloides
[29] = target: HLA-A*24:03; test: as above; details: source organism: Plesiomonas shigelloides
[30] = target: HLA-A*02:19; test: as above; details: source organism: Plesiomonas shigelloides
[31] = target: HLA-A*02:01; test: as above; details: source organism: Plesiomonas shigelloides
[32] = target: HLA-A*69:01; test: as above; details: source organism: Plesiomonas shigelloides
[33] = target: HLA-B*14:02; test: IEDB peptide-MHC binding, purified MHC/competitive/fluorescence; ≥ and ≤ were set here for values at or beyond the usual limits of such assays; details: source organism: Homo sapiens
[34] = target: HLA-A*11:01; test: as above; details: source organism: Homo sapiens
[35] = target: HLA-B*51:01; test: as above; details: source organism: Homo sapiens
[36] = target: HLA-A*68:02; test: as above; details: source organism: Homo sapiens
[37] = target: HLA-A*03:01; test: as above; details: source organism: Homo sapiens
[38] = target: HLA-B*44:03; test: as above; details: source organism: Homo sapiens
[39] = target: HLA-B*53:01; test: as above; details: source organism: Homo sapiens
[40] = target: HLA-A*29:02; test: as above; details: source organism: Homo sapiens
[41] = target: HLA-B*18:01; test: as above; details: source organism: Homo sapiens
[42] = target: HLA-B*58:01; test: as above; details: source organism: Homo sapiens
[43] = target: HLA-A*25:01; test: as above; details: source organism: Homo sapiens
[44] = target: HLA-A*31:01; test: as above; details: source organism: Homo sapiens
[45] = target: HLA-B*07:02; test: as above; details: source organism: Homo sapiens
[46] = target: HLA-B*37:01; test: as above; details: source organism: Homo sapiens
[47] = target: HLA-B*40:02; test: as above; details: source organism: Homo sapiens
[48] = target: HLA-A*02:01; test: as above; details: source organism: Homo sapiens
[49] = target: HLA-B*35:01; test: as above; details: source organism: Homo sapiens
[50] = target: HLA-A*24:02; test: as above; details: source organism: Homo sapiens
[51] = target: HLA-B*08:01; test: as above; details: source organism: Homo sapiens
[52] = target: HLA-A*01:01; test: as above; details: source organism: Homo sapiens

Sequence: ESMMGSTAM
- Kd ([1]; source organism: Escherichia coli str. K-12 substr. MG1655): 3 µM
- Kd [2]: ≥ 20 µM
- Kd [3]: 0.031 µM
- Kd [4]: ≥ 20 µM
- Kd [5]: ≥ 20 µM
- Kd [6]: ≥ 20 µM
- Kd [7]: ≥ 20 µM
- Kd [8]: ≥ 20 µM
- Kd [9]: ≥ 20 µM
- Kd [10]: 0.316 µM
- Kd [11]: ≥ 20 µM
- Kd [12]: ≥ 20 µM
- Kd [13]: ≥ 20 µM
- Kd [14]: ≥ 20 µM
- Kd [15]: ≥ 20 µM
- Kd [16]: ≥ 20 µM

Sequence: LLFRMILNY
- Kd [17]: ≥ 20 µM
- Kd [18]: ≥ 20 µM
- Kd [19]: ≥ 20 µM
- Kd [20]: ≥ 20 µM
- Kd [21]: ≥ 20 µM
- Kd [22]: 0.0259 µM
- Kd [23]: ≥ 20 µM
- Kd [24]: ≥ 20 µM
- Kd ([1]; source organism: Plesiomonas shigelloides): ≥ 20 µM
- Kd [25]: 0.005 µM
- Kd [26]: ≥ 20 µM
- Kd [27]: ≥ 20 µM
- Kd [28]: ≥ 20 µM
- Kd [29]: ≥ 20 µM
- Kd [30]: ≥ 20 µM
- Kd [31]: ≥ 20 µM
- Kd [32]: ≥ 20 µM

Sequence: YFYYNAFHWAI
- IC50 [33]: 15.1 µM
- IC50 [34]: ≥ 20 µM
- IC50 [35]: ≥ 20 µM
- IC50 [36]: 3.62 µM
- IC50 [37]: ≥ 20 µM
- IC50 [38]: ≥ 20 µM
- IC50 [39]: ≥ 20 µM
- IC50 [40]: 0.661 µM
- IC50 [41]: ≥ 20 µM
- IC50 [42]: ≥ 20 µM
- IC50 [43]: ≥ 20 µM
- IC50 [44]: ≥ 20 µM
- IC50 [45]: ≥ 20 µM
- IC50 [46]: ≥ 20 µM
- IC50 [47]: ≥ 20 µM
- IC50 [48]: 2.91 µM
- IC50 [49]: ≥ 20 µM
- IC50 [50]: 1.13 µM
- IC50 [51]: ≥ 20 µM
- IC50 [52]: ≥ 20 µM
